Like-named read-outs stand apart in the source and are kept apart here. Non-standard residues stand in square brackets, D forms with d. No end group written: not given here. pGlu = O=C1CC[C@@H](C(=O)O)N1
What was measured:
LHRH受体 = molecular target: T1, LHRH受体 (Homo sapiens, UniProt P30968); experiment: Competitive flow cytometry against fluorescent anti-LHRH receptor antibody (Example 4); format: binding; settings: MCF7 (LHRH high), 250nM, on ice 1h
T1 construct: MCF7(LHRH高表达)，UCI107(LHRH不表达); endogenous in cells; host or cells: MCF7 (positive), UCI107 (negative)
T1 sequence (P30968 1-328): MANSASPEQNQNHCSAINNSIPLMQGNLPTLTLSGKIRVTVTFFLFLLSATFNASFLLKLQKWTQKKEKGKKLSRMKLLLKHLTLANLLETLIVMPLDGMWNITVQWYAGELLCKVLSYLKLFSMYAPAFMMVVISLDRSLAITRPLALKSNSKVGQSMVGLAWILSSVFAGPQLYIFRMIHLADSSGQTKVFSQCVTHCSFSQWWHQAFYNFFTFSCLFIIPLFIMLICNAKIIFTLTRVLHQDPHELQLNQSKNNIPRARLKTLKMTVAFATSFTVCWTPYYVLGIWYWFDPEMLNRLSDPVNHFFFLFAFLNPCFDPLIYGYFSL

[1] = mouse, in vivo
CD13 = molecular target: T2, CD13 (Homo sapiens, UniProt P15144); experiment: Competitive flow cytometry against fluorescent anti-CD13 antibody (Example 5); format: binding; settings: HUVEC (CD13 high), 250nM, on ice 1h
T2 construct: HUVEC(CD13高表达)，MCF7(CD13不表达); endogenous in cells; host or cells: HUVEC (positive), MCF7 (negative)
T2 sequence (P15144 whole entry): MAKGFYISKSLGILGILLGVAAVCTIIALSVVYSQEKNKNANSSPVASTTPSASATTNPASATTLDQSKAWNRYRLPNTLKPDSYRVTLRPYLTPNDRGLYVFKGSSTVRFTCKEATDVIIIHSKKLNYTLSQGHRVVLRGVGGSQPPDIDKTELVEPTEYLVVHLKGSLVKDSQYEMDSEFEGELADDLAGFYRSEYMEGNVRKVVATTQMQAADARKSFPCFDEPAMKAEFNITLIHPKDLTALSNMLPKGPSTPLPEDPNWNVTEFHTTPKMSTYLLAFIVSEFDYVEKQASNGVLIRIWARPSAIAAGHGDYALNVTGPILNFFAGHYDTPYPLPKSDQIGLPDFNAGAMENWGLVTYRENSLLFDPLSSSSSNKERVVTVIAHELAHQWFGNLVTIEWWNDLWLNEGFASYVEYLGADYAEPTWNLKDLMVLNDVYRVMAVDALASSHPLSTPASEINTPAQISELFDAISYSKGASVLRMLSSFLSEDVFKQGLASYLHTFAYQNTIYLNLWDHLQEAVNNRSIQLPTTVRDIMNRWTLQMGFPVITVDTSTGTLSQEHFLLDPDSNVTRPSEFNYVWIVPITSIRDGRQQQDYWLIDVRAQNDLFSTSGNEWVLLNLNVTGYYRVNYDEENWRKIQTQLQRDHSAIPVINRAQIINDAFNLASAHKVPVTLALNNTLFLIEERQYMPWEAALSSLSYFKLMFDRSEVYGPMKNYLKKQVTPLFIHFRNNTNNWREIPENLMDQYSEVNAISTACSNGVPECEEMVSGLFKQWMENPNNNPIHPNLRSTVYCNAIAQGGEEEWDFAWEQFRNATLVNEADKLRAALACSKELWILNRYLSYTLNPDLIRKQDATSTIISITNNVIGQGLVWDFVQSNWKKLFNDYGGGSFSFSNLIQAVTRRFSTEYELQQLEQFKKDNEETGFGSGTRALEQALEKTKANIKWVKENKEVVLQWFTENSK

Row | competitive inhibition of anti-LHRH receptor antibody binding to LHRH receptor (LHRH受体) | competitive inhibition of anti-CD13 antibody binding to HUVEC (CD13) | Substance | serum half-life [1] [min] | serum half-life ([1]; iv) [min]
1 | 竞争性抑制 | – | Glp-His-Trp-Ser-Tyr-D-Lys-Leu-Arg-Pro-Gly-NH2 (chain 1 [pGlu]HWSY; chain 2 [dK]LRPG-NH2; numbers in words are those of the source; also: chains 1 and 2 are one continuous chain (Tyr-D-Lys peptide bond)) [LHRH] | 2.2 | 2.6
2 | – | 竞争性抑制 | NGR-DNP: cyclic NGR peptide (chain GGGCNGRC) coupled with DNP by amide condensation (not fully specified (bridges); cysteine pairing not given here; also: DNP conjugated by amide condensation, position not given here) | – | –
